T1: human LAG3 expressed on cells (human, UniProt P18627 23-525)
T1 sequence (looked up): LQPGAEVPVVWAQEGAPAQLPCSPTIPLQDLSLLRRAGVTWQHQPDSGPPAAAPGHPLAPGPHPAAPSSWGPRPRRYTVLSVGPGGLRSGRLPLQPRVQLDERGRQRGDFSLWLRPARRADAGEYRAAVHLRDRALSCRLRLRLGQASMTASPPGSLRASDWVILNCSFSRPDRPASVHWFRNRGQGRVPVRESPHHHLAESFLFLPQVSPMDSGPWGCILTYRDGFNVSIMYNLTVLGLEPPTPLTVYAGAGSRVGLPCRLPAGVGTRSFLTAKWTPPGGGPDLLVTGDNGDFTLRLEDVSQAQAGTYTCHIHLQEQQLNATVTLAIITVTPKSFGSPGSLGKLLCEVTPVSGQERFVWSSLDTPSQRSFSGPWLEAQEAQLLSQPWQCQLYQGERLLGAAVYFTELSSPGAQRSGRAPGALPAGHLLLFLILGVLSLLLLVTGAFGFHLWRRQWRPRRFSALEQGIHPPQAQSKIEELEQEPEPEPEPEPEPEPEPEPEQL


What follows are binders tested against T1, human LAG3 expressed on cells (assay: cell-based or functional assay).

IL-2, % of BMS, at 0.005080526 ug/mL [%]	IL-2, % of BMS, at 0.015241579 ug/mL [%]	IL-2, % of BMS, at 0.045724737 ug/mL [%]	IL-2, % of BMS, at 0.137174211 ug/mL [%]	IL-2, % of BMS, at 0.411522634 ug/mL [%]	IL-2, % of BMS, at 1.234567901 ug/mL [%]	IL-2, % of BMS, at 3.703703704 ug/mL [%]	IL-2, % of BMS, at 11.11111111 ug/mL [%]	IL-2, % of BMS, at 33.33333333 ug/mL [%]	IL-2, % of BMS, at 100 ug/mL [%]	Binder
0.0473	0.883	-2.03	0.439	3.96	18.9	43.6	52.5	50.7	62.2	combination of sdAbs 25 and 2015 (other) VHH 1: QLQLVESGGGLVQAGGSLRLSCAASGSIESFSFMGWYRQAPGKQRELVAGFTGAASLSFSTYTDAVKGRFTISRDNAKNTVYLQMNSLKPEDTAVYFCNVDPWSQSWPGRYWGQGTQVTVSS VHH 2: QLQLVESGGGLAQTGGSLRLSCAAAGFTFDDTATGWFRQAPGKNREGVACISSSDGRIHYIDSAKGRFTISKDNAKKTVYLQMDSLKPEDTAVYYCAAARKGSTDCQGAIWGSWGQGTQVIVSS
0	4.21	-1.96	10.8	39	51.2	62.3	69.3	79.8	83	combination of sdAbs 25 and 27 (other) VHH 1: QLQLVESGGGLVQAGGSLRLSCAASGSIESFSFMGWYRQAPGKQRELVAGFTGAASLSFSTYTDAVKGRFTISRDNAKNTVYLQMNSLKPEDTAVYFCNVDPWSQSWPGRYWGQGTQVTVSS VHH 2: QVQLVESGGGLVQPGGSLRLSCAASGFTLDYYAIGWFRQAPGKEREGVSCIRSSDGSTYYADSVKGRFTISSDNTKNTVYLQMNSLKPEDTAVYYCATDRYSDCRGPYENWGQGTQVTVSS
0	1.97	13.2	14.6	32.6	45.4	52.9	52.5	65	66.5	combination of sdAbs 25 and 18 (other) VHH 1: QLQLVESGGGLVQAGGSLRLSCAASGSIESFSFMGWYRQAPGKQRELVAGFTGAASLSFSTYTDAVKGRFTISRDNAKNTVYLQMNSLKPEDTAVYFCNVDPWSQSWPGRYWGQGTQVTVSS VHH 2: QVQLVESGGGLVQPGGSLRLSCAASGFTLNEHAIGWFRRAPGKEREGVSCISSSDGSTYYHDSVKGRFNMSRDDAKNSVYLQMSSLKPEDTAIYYCAAALGRDCQGGQWKTSSWGQGTQVTVSS

These binders were tested against T1, human LAG3 expressed on cells (assay: cell ELISA, 293T-hLAG3 cells).
Protocol: Each well was treated with stimulants. The cells were then fixed and blocked with Blocking buffer. The Primary antibodies were added. The wells were washed and a HRP-conjugated secondary antibody was added. The wells were washed with 1x PBS and a solution containing TMB (Biopanda, TMB-S-004) was added. The TMB reacted with HRP to change the color thereof from colorless to blue. An acid stop solution (Solarbio, C1058) was then added to stop the reaction and change the blue color to yellow.
Materials are listed below: [0072] […] 2) Blocking buffer: 1×PBS+3% BSA (Sigma, B2064); [0074] […] [0075] 4) Secondary antibody: Goat anti-human IgG1 Fc antibody, HRP (1:2500, invitrogen, A18817). [0076]

EC50 [nM]	OD450 at 0.0045725 ug/ml	OD450 at 0.0137174 ug/ml	OD450 at 0.0411523 ug/ml	OD450 at 0.1234568 ug/ml	OD450 at 0.3703704 ug/ml	OD450 at 1.111111 ug/ml	OD450 at 3.333333 ug/ml	OD450 at 10 ug/ml	Binder
1.01	0.101	0.242	0.527	0.945	1.27	1.4	1.44	1.5	sdAb No. 17-H1 (VHH, Modified sdAb No. 17 (CDR1 DG to DA); not shown: Fc part implied by anti-human IgG1 Fc detection) VHH: QLQLVESGGGLVQPGGSLRLSCAASGLTLDAYAIGWFRQAPGKEREGLACISGSDGSTHYLDSVKGRFTISRDNGKNTMALQMNSLQFGDTAIYYCAARRGSCSGSWTYWGQGTQVTVSS
1.01	0.096	0.208	0.43	0.818	1.11	1.21	1.13	1.28	sdAb No. 17-H3 (VHH, Modified sdAb No. 17 (CDR2 DG to DA); not shown: Fc part implied by anti-human IgG1 Fc detection) VHH: QLQLVESGGGLVQPGGSLRLSCAASGLTLDGYAIGWFRQAPGKEREGLACISGSDASTHYLDSVKGRFTISRDNGKNTMALQMNSLQFGDTAIYYCAARRGSCSGSWTYWGQGTQVTVSS
0.758	0.092	0.232	0.432	0.745	0.962	0.979	0.905	1.18	sdAb No. 17-H4 (VHH, Modified sdAb No. 17 (CDR2 DG to EG); not shown: Fc part implied by anti-human IgG1 Fc detection) VHH: QLQLVESGGGLVQPGGSLRLSCAASGLTLDGYAIGWFRQAPGKEREGLACISGSEGSTHYLDSVKGRFTISRDNGKNTMALQMNSLQFGDTAIYYCAARRGSCSGSWTYWGQGTQVTVSS
1.07	0.105	0.238	0.458	0.9	1.25	1.35	1.28	1.4	sdAb No. 17-H2 (VHH, Modified sdAb No. 17 (CDR1 DG to EG); not shown: Fc part implied by anti-human IgG1 Fc detection) VHH: QLQLVESGGGLVQPGGSLRLSCAASGLTLEGYAIGWFRQAPGKEREGLACISGSDGSTHYLDSVKGRFTISRDNGKNTMALQMNSLQFGDTAIYYCAARRGSCSGSWTYWGQGTQVTVSS

From patent US20230303690A1 (published 2023)
